# Values of other authors in PMC3101942.
# Target: tissue factor (Homo sapiens) (UniProt P13726)
# UniProt P13726, sequence (P13726 33-251): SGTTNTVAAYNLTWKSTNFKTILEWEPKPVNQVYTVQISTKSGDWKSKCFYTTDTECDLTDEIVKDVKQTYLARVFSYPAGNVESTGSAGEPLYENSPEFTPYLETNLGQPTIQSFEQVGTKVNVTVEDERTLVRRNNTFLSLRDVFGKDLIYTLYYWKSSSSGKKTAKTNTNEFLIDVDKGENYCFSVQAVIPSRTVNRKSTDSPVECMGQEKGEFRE
substance,measurement,value
factor VII (from UniProt P08709),Kd,1 pM
